Source: patent US20140295512A1, “Ketol-Acid Reductoisomerases With Improved Performance Properties” (CALIFORNIA INSTITUTE OF TECHNOLOGY, priority 2011, published 2014)
Changes are numbered by the printed parent chain. Names and notes keep the numbering of the source.

B1: Zm: Zymomonas mobilis KARI homolog (protein, UniProt Q9X5F8 1-339, looked up)
Ketol-acid reductoisomerase …: MKVYYDSDADLGLIKSKKIAILGYGSQGHAHAQNLRDSGVAEVAIALRPDSASVKKAQDAGFKVLTNAEAAKWADILMILAPDEHQAAIYAEDLKDNLRPGSAIAFAHGLNIHFGLIEPRKDIDVFMIAPKGPGHTVRSEYVRGGGVPCLVAVDQDASGNAHDIALAYASGIGGGRSGVIETTFREEVETDLFGEQAVLCGGLTALITAGFETLTEAGYAPEMAFFECMHEMKLIVDLIYEAGIANMRYSISNTAEYGDIVSGPRVINEESKKAMKAILDDIQSGRFVSKFVLDNRAGQPELKAARKRMAAHPIEQVGARLRKMMPWIASNKLVDKARN
B2: Se1_KARI^GE11-his6: S. exigua KARI variant G60V (protein, UniProt D0WGK0 1-342, looked up, variant G60V)
Ketol-acid reductoisomerase …: MSVKTKEKEMAVTILYEQDVDPKVIQGLKVGIIGYGSQGHAHALNLMDSGVDVRVGLREVSSSWKTAEEAGLKVTDMDTAAEEADVIMVLVPDEIQPKVYQEHIAAHLKAGNTLAFAHGFNIHYGYIVPPEDVNVIMCAPKGPGHIVRRQFTEGSGVPDLACVQQDATGNAWDIVLSYCWGVGGARSGIIKATFAEETEEDLFGEQAVLCGGLVELVKAGFETLTEAGYPPELAYFECYHEMKMIVDLMYESGIHFMNYSISNTAEYGEYYAGPKVINEQSREAMKEILKRIQDGSFAQEFVDDCNNGHKRLLEQREAINTHPIETTGAQIRSMFSWIKKED
modifications: His6 tag
notes: S. exigua KARI variant G60V
B3: Se1_KARI^AC1: S. exigua KARI variant S63D, I95A (protein, UniProt D0WGK0 1-342, looked up, variant S63D I95A)
Ketol-acid reductoisomerase …: B2 Ketol-acid reductoisomerase … with V60G, S63D, I95A
B4: Se1_KARI^1H1: S. exigua KARI variant R58P, S61C (protein, UniProt D0WGK0 1-342, looked up, variant R58P S61C)
Ketol-acid reductoisomerase …: B2 Ketol-acid reductoisomerase … with R58P, V60G, S61C
B5: Se1_KARI^14B7: S. exigua KARI variant Y35H, S63D, I95V (protein, UniProt D0WGK0 1-342, looked up, variant Y35H S63D I95V)
Ketol-acid reductoisomerase …: B2 Ketol-acid reductoisomerase … with Y35H, V60G, S63D, I95V
B6: Se1_NKR^Gen6-his6: S. exigua KARI variant S61D, S63D, I95V (protein, UniProt D0WGK0 1-342, looked up, variant S61D S63D I95V)
Ketol-acid reductoisomerase …: B2 Ketol-acid reductoisomerase … with V60G, S61D, S63D, I95V
modifications: His6 tag
notes: S. exigua KARI variant S61D, S63D, I95V
B7: Se1_KARI^MH9-his6: S. exigua KARI variant V99L (protein, UniProt D0WGK0 1-342, looked up, variant V99L)
Ketol-acid reductoisomerase …: B2 Ketol-acid reductoisomerase … with V60G, V99L
modifications: His6 tag
notes: S. exigua KARI variant V99L
B8: Se1_KARI^13G6: S. exigua KARI variant G60V, I95A (protein, UniProt D0WGK0 1-342, looked up, variant G60V I95A)
Ketol-acid reductoisomerase …: B2 Ketol-acid reductoisomerase … with I95A
B9: Se1_KARI^LE9-his6: S. exigua KARI variant I95T (protein, UniProt D0WGK0 1-342, looked up, variant I95T)
Ketol-acid reductoisomerase …: B2 Ketol-acid reductoisomerase … with V60G, I95T
modifications: His6 tag
notes: S. exigua KARI variant I95T
B10: Se1_KARI^JB7-his6: S. exigua KARI variant S63Q (protein, UniProt D0WGK0 1-342, looked up, variant S63Q)
Ketol-acid reductoisomerase …: B2 Ketol-acid reductoisomerase … with V60G, S63Q
modifications: His6 tag
notes: S. exigua KARI variant S63Q
B11: Se1_KARI^1A8: S. exigua KARI variant G60V, I95V, V99L (protein, UniProt D0WGK0 1-342, looked up, variant G60V I95V V99L)
Ketol-acid reductoisomerase …: B2 Ketol-acid reductoisomerase … with I95V, V99L
B12: Se1_KARI^CD10-his6: S. exigua KARI variant Y35H (protein, UniProt D0WGK0 1-342, looked up, variant Y35H)
Ketol-acid reductoisomerase …: B2 Ketol-acid reductoisomerase … with Y35H, V60G
modifications: His6 tag
notes: S. exigua KARI variant Y35H
B13: Se1_KARI^HF2-his6: S. exigua KARI variant S61C (protein, UniProt D0WGK0 1-342, looked up, variant S61C)
Ketol-acid reductoisomerase …: B2 Ketol-acid reductoisomerase … with V60G, S61C
modifications: His6 tag
notes: S. exigua KARI variant S61C
B14: Se1_KARI^LE1-his6: S. exigua KARI variant I95V (protein, UniProt D0WGK0 1-342, looked up, variant I95V)
Ketol-acid reductoisomerase …: B2 Ketol-acid reductoisomerase … with V60G, I95V
modifications: His6 tag
notes: S. exigua KARI variant I95V
B15: Se1_KARI^2C6: S. exigua KARI variant L57V, R58P (protein, UniProt D0WGK0 1-342, looked up, variant L57V R58P)
Ketol-acid reductoisomerase …: B2 Ketol-acid reductoisomerase … with L57V, R58P, V60G
B16: Se1_KARI^EA8-his6: S. exigua KARI variant L57S (protein, UniProt D0WGK0 1-342, looked up, variant L57S)
Ketol-acid reductoisomerase …: B2 Ketol-acid reductoisomerase … with L57S, V60G
modifications: His6 tag
notes: S. exigua KARI variant L57S

Experiments:
Type in all cases: biochemical
[1] = KARI enzyme assay on cell lysates with NADH and NADPH as cofactors
Protocol: In this example, different KARI enzymes (Table 7) were screened for their activity with NADH and NADPH as cofactor. The enzymes were expressed in an S. cerevisiae strain by means of 2 micron plasmids carrying the KARI genes under the control of the S. cerevisiae TDH3 promoter. The transformants were cultivated in shake flask fermentations as described below and samples were taken after 44 h, centrifuged at 4000×g for 10 mins at 4° C. and the cell pellets were stored at −80° C. until analysis. The pellets were lysed by bead beating and the lysates were analyzed by KARI activity assay as described below using NADH and NADPH as cofactors.
Patched cells (or single colonies) grown on YPD+G418 plates at 30° C. were mixed into 3 mL YP+12% dextrose+200 mM MES, pH 6.5+G418, in 14 mL culture tubes and incubated at 250 RPM, 30° C. for ˜24 hours. The cells from the cultures were used to inoculate YP+12% dextrose+200 mM MES, pH 6.5+G418, in non-baffled flasks with a vented grey screw-caps at OD600 0.01. The cultures were incubated at 250 RPM, 30° C. for 24 hours, diluted 1:3 and incubated for another 20 h at 250 RPM, 30° C. Samples for enzyme assay pellets and protein quantification pellets were taken from each shake flask, and cell-free supernatant was used to measure glucose levels in shake flasks.
The assay and no substrate control reactions were performed in triplicate for each sample. The following stock solutions were prepared: 1 M potassium phosphate, pH 7, 0.1 M MgCl2, 100 mM DTT, 25 mM NADH or NADPH, 200 mM 2-acetolactate. The 2-acetolactate was made fresh each time by mixing 50 μL Ethyl-2-acetoxy-2-methylacetoacetate (EAMAA) with 990 μL water. Gradually 260 μL of 2 N NaOH was added in 10 μL increments to the EAMAA water mixture. After each addition the sample was vortexed for 15 seconds, and the procedure repeated until the entire 260 μL of 2 N NaOH was added. Afterwards the solution was mixed on an orbital shaker for 20 min (Krampitz, 1957). KARI reaction buffer (100 μL per reaction) was prepared to the following concentrations: 250 mM potassium phosphate, pH 7, 10 mM MgCl2, 1 mM DTT, 0.2 mM NADH or NADPH, 10 mM 2-acetolactate. For the no substrate controls, the 2-acetolactate was substituted with water. 10 μL of each lysate were transferred into a 96 well half area assay plate. The reaction was started with 90 μL of reaction buffer to each well using a multichannel pipette. The samples were mixed immediately. The samples were read at 340 nm every 10 s for 5 min.

[2] = KARI assay of purified S. exigua KARI and variants with NADH (Examples 6-9); settings: for U/mg NADH (specific activity): cofactor NADH; for Ratio NADH/NADPH (U/mg): specific activity ratio; for Km: read-out: Km for cofactor NADH
Protocol: (§1) S. exigua KARI activity or activities of its variants were assayed kinetically by monitoring the decrease in NADPH or NADH concentration by measuring the change in absorbance at 340 nm. An assay buffer was prepared containing 100 mM potassium phosphate pH 7.0, 1 mM DTT, 2.5 mM (S)-2-acetolactate, and 10 mM MgCl2 (final concentrations in the 1-mL assay, accounting for dilution with enzyme and cofactor). Fifty μL purified enzyme and 930 μL of the assay buffer were placed into a 1-mL cuvette. The reaction was initiated by addition of 20 μL NADPH or NADH (200 μM final concentration) for a general activity assay. Michaelis-Menten constants of the cofactors were determined with varying concentrations of NADPH (200-12 μM final) or NADH (200-6 μM final).

[3] = KARI assay of purified S. exigua KARI and variants with NADPH (Examples 6-9); settings: for U/mg NADPH (specific activity): cofactor NADPH; for Km: read-out: Km for cofactor NADPH
Protocol: as §1

Molecule | Specific Activity with NADH/Specific Activity with NADPH [1] | NADH-Dependent Specific Activity ([1]; empty vector control subtracted) | kcat NADH [2] | U/mg NADH (specific activity) [2] | U/mg NADH (specific activity) ([2]; listed as Se1_KARI^GE11) | Ratio NADH/NADPH (U/mg) [2] | Ratio NADH/NADPH (U/mg) ([2]; listed as Se1_KARI^GE11) | kcat NADPH [3] | U/mg NADPH (specific activity) [3] | kcat/Km ratio NADH/NADPH (cofactor specificity) [2] | Km [2] | Km [3] | U/mg NADH (specific activity) ([2]; listed as Se1_KARI^LE1) | U/mg NADPH (specific activity) ([3]; listed as Se1_KARI^LE1)
B1 | 0.074 | 0.002 U/mg lysate |  |  |  |  |  |  |  |  |  |  |  | 
B2 |  |  | 1 s⁻¹ | 0.4 U/mg | 0.40 U/mg | 0.48 | 0.50 | 2 s⁻¹ | 0.8 U/mg |  |  |  |  | 
B3 |  |  | 0.5 s⁻¹ | 0.2 U/mg |  | 0.5 |  | 1 s⁻¹ | 0.4 U/mg | 0.3 | 68 µM | 45 µM |  | 
B4 |  |  | 0.50 s⁻¹ | 0.20 U/mg |  | 0.8 |  | 0.65 s⁻¹ | 0.26 U/mg |  |  |  |  | 
B5 |  |  | 0.45 s⁻¹ | 0.18 U/mg |  | 0.32 |  | 1.4 s⁻¹ | 0.56 U/mg |  |  |  |  | 
B6 |  |  | 1 ± 0.01 s⁻¹ | 0.4 ± 0.01 U/mg |  | 5.7 |  | 0.18 ± 0.00 s⁻¹ | 0.07 ± 0.0 U/mg | 87 | 47 ± 15 µM | > 1000 µM |  | 
B7 |  |  |  | 0.21 U/mg |  | 0.64 |  |  | 0.34 U/mg |  |  |  |  | 
B8 |  |  | 0.74 s⁻¹ | 0.30 U/mg |  | 0.8 |  | 0.90 s⁻¹ | 0.37 U/mg | 0.03 | 34 µM | < 1 µM |  | 
B9 |  |  |  | 0.32 U/mg |  | 0.58 |  |  | 0.56 U/mg |  |  |  |  | 
B10 |  |  | 0.69 s⁻¹ | 0.28 U/mg |  | 0.47 |  | 1.5 s⁻¹ | 0.6 U/mg |  |  |  |  | 
B11 |  |  | 0.65 s⁻¹ | 0.26 U/mg |  | 0.8 |  | 0.79 s⁻¹ | 0.32 U/mg |  |  |  |  | 
B12 |  |  |  | 0.13 U/mg |  | 0.68 |  |  | 0.19 U/mg |  |  |  |  | 
B13 |  |  | 0.45 s⁻¹ | 0.18 U/mg |  | 0.78 |  | 0.57 s⁻¹ | 0.23 U/mg |  | 43.8 µM |  |  | 
B14 |  |  | 0.74 s⁻¹ | 0.3 U/mg |  | 0.8 |  | 1.00 s⁻¹ | 0.4 U/mg |  | 19 µM |  | 0.30 U/mg | 0.40 U/mg
B15 |  |  | 0.55 s⁻¹ | 0.22 U/mg |  | 0.7 |  | 0.80 s⁻¹ | 0.33 U/mg |  |  |  |  | 
B16 |  |  |  | 0.19 U/mg |  | 0.76 |  |  | 0.25 U/mg |  |  |  |  | 
